Assay [1] deals with FGF receptor/BKL complex on HEK293 cells overexpressing human beta-klotho (BKL) (human) (UniProt Q86Z14). The assay is described as follows: cell-based or functional assay.
In assay [2] the target is FGFR1c receptor/BKL complex on differentiated mouse 3T3-L1 adipocytes (mouse) (UniProt P16092). The assay is described as follows: cell-based or functional assay.
Sequence of FGFR1c receptor/BKL complex on differentiated mouse 3T3-L1 adipocytes (mouse) (P16092 22-822, chain 1 of 2): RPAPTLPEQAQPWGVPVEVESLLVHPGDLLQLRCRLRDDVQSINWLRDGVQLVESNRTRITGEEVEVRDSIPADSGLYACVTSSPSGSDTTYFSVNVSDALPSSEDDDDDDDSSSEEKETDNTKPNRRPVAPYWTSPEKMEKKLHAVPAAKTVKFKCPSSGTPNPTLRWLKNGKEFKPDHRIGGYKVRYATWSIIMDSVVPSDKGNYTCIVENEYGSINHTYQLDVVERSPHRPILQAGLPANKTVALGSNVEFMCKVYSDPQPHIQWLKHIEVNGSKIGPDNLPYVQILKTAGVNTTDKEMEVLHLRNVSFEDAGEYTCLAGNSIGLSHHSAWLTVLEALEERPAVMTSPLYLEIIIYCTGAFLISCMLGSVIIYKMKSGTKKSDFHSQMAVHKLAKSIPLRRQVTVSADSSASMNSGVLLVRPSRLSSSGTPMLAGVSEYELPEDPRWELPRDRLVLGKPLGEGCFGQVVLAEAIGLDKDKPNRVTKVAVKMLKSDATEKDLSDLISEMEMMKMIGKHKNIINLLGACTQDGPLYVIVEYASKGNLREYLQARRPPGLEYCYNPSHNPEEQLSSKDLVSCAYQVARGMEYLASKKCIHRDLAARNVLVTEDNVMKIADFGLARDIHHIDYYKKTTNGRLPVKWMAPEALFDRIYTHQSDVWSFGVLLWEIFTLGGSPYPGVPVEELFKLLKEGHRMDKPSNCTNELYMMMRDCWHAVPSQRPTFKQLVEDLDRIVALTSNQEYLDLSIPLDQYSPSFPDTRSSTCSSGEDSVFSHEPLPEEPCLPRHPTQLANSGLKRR
Sequence of FGFR1c receptor/BKL complex on differentiated mouse 3T3-L1 adipocytes (mouse) (Q99N32 whole entry, chain 2 of 2, further chain): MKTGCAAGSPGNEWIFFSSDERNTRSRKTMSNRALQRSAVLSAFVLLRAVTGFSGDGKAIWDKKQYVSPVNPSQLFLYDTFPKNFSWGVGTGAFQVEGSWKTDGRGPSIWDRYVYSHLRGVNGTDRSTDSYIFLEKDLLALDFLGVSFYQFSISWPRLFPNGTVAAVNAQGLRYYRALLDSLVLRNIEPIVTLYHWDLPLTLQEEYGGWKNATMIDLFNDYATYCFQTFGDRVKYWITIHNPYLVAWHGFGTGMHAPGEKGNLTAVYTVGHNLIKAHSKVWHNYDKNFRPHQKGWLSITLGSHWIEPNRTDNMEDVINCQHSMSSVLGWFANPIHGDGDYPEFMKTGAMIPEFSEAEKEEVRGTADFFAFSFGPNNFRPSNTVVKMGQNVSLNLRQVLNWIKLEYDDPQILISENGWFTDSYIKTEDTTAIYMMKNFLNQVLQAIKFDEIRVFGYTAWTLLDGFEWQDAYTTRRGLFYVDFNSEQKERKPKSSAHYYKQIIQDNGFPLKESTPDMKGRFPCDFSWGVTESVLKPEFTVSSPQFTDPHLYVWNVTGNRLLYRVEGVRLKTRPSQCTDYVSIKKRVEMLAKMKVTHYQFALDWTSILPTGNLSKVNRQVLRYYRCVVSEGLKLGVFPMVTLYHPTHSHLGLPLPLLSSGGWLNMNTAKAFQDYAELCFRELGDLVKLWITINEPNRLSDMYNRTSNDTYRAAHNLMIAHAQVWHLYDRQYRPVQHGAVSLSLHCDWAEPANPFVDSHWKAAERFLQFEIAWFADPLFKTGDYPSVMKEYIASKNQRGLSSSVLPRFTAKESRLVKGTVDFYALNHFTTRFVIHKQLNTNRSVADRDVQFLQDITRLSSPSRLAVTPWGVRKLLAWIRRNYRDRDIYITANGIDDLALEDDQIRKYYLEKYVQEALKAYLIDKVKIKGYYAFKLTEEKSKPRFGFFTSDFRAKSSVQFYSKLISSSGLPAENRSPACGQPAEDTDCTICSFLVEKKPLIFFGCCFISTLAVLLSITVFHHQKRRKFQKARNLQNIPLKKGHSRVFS

Sequence of S{Beta-176}-2-aminoethylsulfanyl-Ala[Gln121,Leu168,Cys176]FGF21 (Q9NSA1 other isoform, or with tags, fused parts or gaps limits assumed): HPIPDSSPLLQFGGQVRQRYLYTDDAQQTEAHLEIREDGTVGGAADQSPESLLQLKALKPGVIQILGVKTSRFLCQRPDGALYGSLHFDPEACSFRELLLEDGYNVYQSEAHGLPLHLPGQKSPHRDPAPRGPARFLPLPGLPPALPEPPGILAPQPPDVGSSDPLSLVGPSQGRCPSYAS
Sequence of S{Beta-180}-2-aminoethylsulfanyl-Ala[Gln121,Leu168,Cys180]FGF21 (Q9NSA1 other isoform, or with tags, fused parts or gaps limits assumed): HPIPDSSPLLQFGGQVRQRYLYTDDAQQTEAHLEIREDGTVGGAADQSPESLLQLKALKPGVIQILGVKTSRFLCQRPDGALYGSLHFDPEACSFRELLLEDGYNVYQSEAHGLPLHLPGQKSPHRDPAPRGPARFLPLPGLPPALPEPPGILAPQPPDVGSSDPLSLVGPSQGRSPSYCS
Sequence of S{Beta-179}-2-aminoethylsulfanyl-Ala[Gln121,Leu168,Cys179]FGF21 (Q9NSA1 other isoform, or with tags, fused parts or gaps limits assumed): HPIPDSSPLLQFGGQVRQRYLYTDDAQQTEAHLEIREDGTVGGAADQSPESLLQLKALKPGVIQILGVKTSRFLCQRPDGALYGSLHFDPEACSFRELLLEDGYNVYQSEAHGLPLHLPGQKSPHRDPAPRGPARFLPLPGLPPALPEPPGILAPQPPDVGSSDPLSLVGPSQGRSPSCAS
Sequence of S{Beta-180}-2-aminoethylsulfanyl-Ala[Gln121,Leu168,Cys180,des181]FGF21 (Q9NSA1 other isoform, or with tags, fused parts or gaps limits assumed): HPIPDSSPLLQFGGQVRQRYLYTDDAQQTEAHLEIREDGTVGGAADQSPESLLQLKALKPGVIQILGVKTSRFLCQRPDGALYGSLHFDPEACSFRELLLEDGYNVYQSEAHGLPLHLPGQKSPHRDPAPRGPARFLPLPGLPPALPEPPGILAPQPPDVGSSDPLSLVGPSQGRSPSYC
Sequence of S{Beta-178}-2-aminoethylsulfanyl-Ala[Gln121,Leu168,Cys178]FGF21 (Q9NSA1 other isoform, or with tags, fused parts or gaps limits assumed): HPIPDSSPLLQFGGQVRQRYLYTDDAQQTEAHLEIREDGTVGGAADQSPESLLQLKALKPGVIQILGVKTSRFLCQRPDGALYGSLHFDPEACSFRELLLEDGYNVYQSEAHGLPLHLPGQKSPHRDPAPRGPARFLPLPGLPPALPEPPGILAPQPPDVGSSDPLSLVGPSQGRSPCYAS
Sequence of S{Beta-181}-2-aminoethylsulfanyl-Ala[Gln121,Leu168,Cys181]FGF21 (Q9NSA1 other isoform, or with tags, fused parts or gaps limits assumed): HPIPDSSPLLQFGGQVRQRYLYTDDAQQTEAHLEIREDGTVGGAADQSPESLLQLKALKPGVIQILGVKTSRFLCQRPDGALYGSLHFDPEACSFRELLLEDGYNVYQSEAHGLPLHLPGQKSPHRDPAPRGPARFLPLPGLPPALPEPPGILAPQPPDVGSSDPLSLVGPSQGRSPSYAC
Sequence of FGF receptor/BKL complex on HEK293 cells overexpressing human beta-klotho (BKL) (human) (Q86Z14 whole entry, one chain of several): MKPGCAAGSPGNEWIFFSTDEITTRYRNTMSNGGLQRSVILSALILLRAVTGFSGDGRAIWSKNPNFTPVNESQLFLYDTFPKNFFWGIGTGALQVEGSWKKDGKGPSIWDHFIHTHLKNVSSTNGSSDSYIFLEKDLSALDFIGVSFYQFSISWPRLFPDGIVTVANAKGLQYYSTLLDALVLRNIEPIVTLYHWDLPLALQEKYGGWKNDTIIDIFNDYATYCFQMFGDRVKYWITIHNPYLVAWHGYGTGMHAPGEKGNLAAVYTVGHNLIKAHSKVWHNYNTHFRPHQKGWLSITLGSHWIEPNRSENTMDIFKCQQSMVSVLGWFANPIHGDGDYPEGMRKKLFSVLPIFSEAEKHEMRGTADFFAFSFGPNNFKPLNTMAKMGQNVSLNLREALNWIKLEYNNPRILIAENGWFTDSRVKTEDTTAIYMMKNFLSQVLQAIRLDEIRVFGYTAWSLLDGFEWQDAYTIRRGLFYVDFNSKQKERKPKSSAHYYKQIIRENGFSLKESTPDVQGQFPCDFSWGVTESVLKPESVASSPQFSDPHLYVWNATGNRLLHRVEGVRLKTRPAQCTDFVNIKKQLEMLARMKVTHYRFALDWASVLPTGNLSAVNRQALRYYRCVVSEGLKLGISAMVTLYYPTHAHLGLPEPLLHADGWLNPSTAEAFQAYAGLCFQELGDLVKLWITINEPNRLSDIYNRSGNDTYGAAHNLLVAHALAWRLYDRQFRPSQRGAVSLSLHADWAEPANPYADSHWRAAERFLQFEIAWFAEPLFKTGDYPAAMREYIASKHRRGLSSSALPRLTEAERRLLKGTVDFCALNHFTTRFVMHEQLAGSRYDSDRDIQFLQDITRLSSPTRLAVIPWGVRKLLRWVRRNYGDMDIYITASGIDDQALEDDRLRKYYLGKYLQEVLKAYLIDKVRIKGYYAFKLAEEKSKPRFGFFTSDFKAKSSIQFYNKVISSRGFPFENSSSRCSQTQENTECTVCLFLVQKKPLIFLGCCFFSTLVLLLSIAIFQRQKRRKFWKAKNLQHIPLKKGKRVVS
Sequence of Ala[Gln121,Leu168]FGF21 (Q9NSA1 other isoform, or with tags, fused parts or gaps limits assumed): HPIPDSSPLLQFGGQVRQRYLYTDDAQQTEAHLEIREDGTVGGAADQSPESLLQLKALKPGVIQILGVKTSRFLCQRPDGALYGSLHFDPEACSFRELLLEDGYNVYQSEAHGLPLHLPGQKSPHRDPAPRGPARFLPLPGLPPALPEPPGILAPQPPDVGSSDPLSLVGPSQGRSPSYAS

Take “Ala[Gln121,Leu168]FGF21 (from UniProt Q9NSA1 29-209) (ligand)”: the EC50 (nM), pERK, HEK293/BKL cells in assay [1] is 2 nM. Besides, in assay [2], the Glucose uptake EC50 (nM), 3T3-L1 adipocytes was 3.1 nM and the Glucose uptake Emax (%), 3T3-L1 adipocytes was 85%.

In assay [1], “S{Beta-168}-[2-[2-[[2-[2-[2-[[2-[2-[2-[[(4S)-4-carboxy-4-(13-carboxytridecanoyl-amino)butanoyl]amino]ethoxy]ethoxy]acetyl]amino]ethoxy]ethoxy]acetyl]amino]-ethylamino]-2-oxoethyl]-Ala[Gln121,Cys168]FGF21 (from UniProt Q9NSA1 29-209) (ligand)” yielded an EC50 (0.1% HSA) (nM), pERK, HEK293/BKL cells of 4260 nM and an EC50 (nM), pERK, HEK293/BKL cells of 667 nM.

In assay [1], “S{Beta-169}-[2-[2-[[2-[2-[2-[[2-[2-[2-[[(4S)-4-carboxy-4-(15-carboxypentadecanoyl-amino)butanoyl]amino]ethoxy]ethoxy]acetyl]amino]ethoxy]ethoxy]acetyl]amino]-ethylamino]-2-oxoethyl]-Ala[Gln121,Leu168,Cys169]FGF21 (from UniProt Q9NSA1 29-209) (ligand)” had an EC50 (0.1% HSA) (nM), pERK, HEK293/BKL cells of 20 nM and an EC50 (nM), pERK, HEK293/BKL cells of 25 nM.

For the substance “S{Beta-173}-[2-[2-[[2-[2-[2-[[2-[2-[2-[[(4S)-4-carboxy-4-(15-carboxypentadecanoyl-amino)butanoyl]amino]ethoxy]ethoxy]acetyl]amino]ethoxy]ethoxy]acetyl]amino]-ethylamino]-2-oxoethyl]-Ala[Gln121,Leu168,Cys173]FGF21 (from UniProt Q9NSA1 29-209) (ligand)”, in assay [1], the EC50 (0.1% HSA) (nM), pERK, HEK293/BKL cells is 4 nM and the EC50 (nM), pERK, HEK293/BKL cells is 3 nM.

In assay [1], “S{Beta-174}-[2-[2-[[2-[2-[2-[[2-[2-[2-[[(4S)-4-carboxy-4-(13-carboxytridecanoyl-amino)butanoyl]amino]ethoxy]ethoxy]acetyl]amino]ethoxy]ethoxy]acetyl]amino]-ethylamino]-2-oxoethyl]-Ala[Gln121,Leu168,Cys174]FGF21 (from UniProt Q9NSA1 29-209) (ligand)” returned an EC50 (0.1% HSA) (nM), pERK, HEK293/BKL cells of 4 nM and an EC50 (nM), pERK, HEK293/BKL cells of 4 nM.

In assay [1], “S{Beta-175}-[2-[2-[[2-[2-[2-[[2-[2-[2-[[(4S)-4-carboxy-4-(15-carboxypentadecanoyl-amino)butanoyl]amino]ethoxy]ethoxy]acetyl]amino]ethoxy]ethoxy]acetyl]amino]-ethylamino]-2-oxoethyl]-Ala[Gln121,Leu168,Cys175]FGF21 (from UniProt Q9NSA1 29-209) (ligand)” registered an EC50 (0.1% HSA) (nM), pERK, HEK293/BKL cells of 1 nM and an EC50 (nM), pERK, HEK293/BKL cells of 1 nM.

In assay [1], “S{Beta-176}-2-aminoethylsulfanyl-Ala[Gln121,Leu168,Cys176]FGF21 (from UniProt Q9NSA1 29-209) (ligand)” displayed an EC50 (nM), pERK, HEK293/BKL cells of 227 nM. In assay [2], this substance had a Glucose uptake EC50 (nM), 3T3-L1 adipocytes of 73 nM and a Glucose uptake Emax (%), 3T3-L1 adipocytes of 84%.

Turning to “S{Beta-176}-[2-[2-[[2-[2-[2-[[2-[2-[2-[[(4S)-4-carboxy-4-(15-carboxypentadecanoyl-amino)butanoyl]amino]ethoxy]ethoxy]acetyl]amino]ethoxy]ethoxy]acetyl]amino]-ethylamino]-2-oxoethyl]-Ala[Gln121,Leu168,Cys176]FGF21 (from UniProt Q9NSA1 29-209) (ligand)”, in assay [1], the EC50 (0.1% HSA) (nM), pERK, HEK293/BKL cells was 373 nM and the EC50 (nM), pERK, HEK293/BKL cells came to 214 nM.

Consider “S{Beta-178}-2-aminoethylsulfanyl-Ala[Gln121,Leu168,Cys178]FGF21 (from UniProt Q9NSA1 29-209) (ligand)”, for which the EC50 (nM), pERK, HEK293/BKL cells in assay [1] turned out to be 105 nM. In assay [2], this substance had a Glucose uptake EC50 (nM), 3T3-L1 adipocytes of 50 nM and a Glucose uptake Emax (%), 3T3-L1 adipocytes of 69%.

In assay [1], “S{Beta-179}-2-aminoethylsulfanyl-Ala[Gln121,Leu168,Cys179]FGF21 (from UniProt Q9NSA1 29-209) (ligand)” returned an EC50 (nM), pERK, HEK293/BKL cells of 69 nM. In assay [2], this substance had a Glucose uptake EC50 (nM), 3T3-L1 adipocytes of 25 nM and a Glucose uptake Emax (%), 3T3-L1 adipocytes of 77%.

With “S{Beta-179}-[2-[2-[[2-[2-[2-[[2-[2-[2-[[(4S)-4-carboxy-4-(15-carboxypentadecanoyl-amino)butanoyl]amino]ethoxy]ethoxy]acetyl]amino]ethoxy]ethoxy]acetyl]amino]-ethylamino]-2-oxoethyl]-Ala[Gln121,Leu168,Cys179]FGF21 (from UniProt Q9NSA1 29-209) (ligand)”, in assay [1], the EC50 (0.1% HSA) (nM), pERK, HEK293/BKL cells was found to be 134 nM and the EC50 (nM), pERK, HEK293/BKL cells stood at 107 nM. Besides, in assay [2], the Glucose uptake EC50 (nM), 3T3-L1 adipocytes amounted to 107 nM and the Glucose uptake Emax (%), 3T3-L1 adipocytes is 54%.

Substance “S{Beta-180}-2-aminoethylsulfanyl-Ala[Gln121,Leu168,Cys180,des181]FGF21 (from UniProt Q9NSA1 29-207) (ligand)” had an EC50 (nM), pERK, HEK293/BKL cells in assay [1] of 20 nM. Further, in assay [2], the Glucose uptake EC50 (nM), 3T3-L1 adipocytes is 73 nM and the Glucose uptake Emax (%), 3T3-L1 adipocytes was determined as 72%.

In turn, “S{Beta-180}-2-aminoethylsulfanyl-Ala[Gln121,Leu168,Cys180]FGF21 (from UniProt Q9NSA1 29-209) (ligand)” showed an EC50 (nM), pERK, HEK293/BKL cells in assay [1] of 2.3 nM. In assay [2], this substance gave a Glucose uptake EC50 (nM), 3T3-L1 adipocytes of 2.6 nM and a Glucose uptake Emax (%), 3T3-L1 adipocytes of 102%.

Regarding “S{Beta-180}-[2-[2-[[2-[2-[2-[[2-[2-[2-[[(4S)-4-carboxy-4-(11-carboxyundecanoyl-amino)butanoyl]amino]ethoxy]ethoxy]acetyl]amino]ethoxy]ethoxy]acetyl]amino]-ethylamino]-2-oxoethyl]-Ala[Gln121,Leu168,Cys180]FGF21 (from UniProt Q9NSA1 29-209) (ligand)”, in assay [1], the EC50 (0.1% HSA) (nM), pERK, HEK293/BKL cells was 4 nM and the EC50 (nM), pERK, HEK293/BKL cells was 7 nM. Further, in assay [2], the Glucose uptake EC50 (nM), 3T3-L1 adipocytes amounted to 2.7 nM and the Glucose uptake Emax (%), 3T3-L1 adipocytes was 87%.

“S{Beta-180}-[2-[2-[[2-[2-[2-[[2-[2-[2-[[(4S)-4-carboxy-4-(13-carboxytridecanoyl-amino)butanoyl]amino]ethoxy]ethoxy]acetyl]amino]ethoxy]ethoxy]acetyl]amino]-ethylamino]-2-oxoethyl]-Ala[Gln121,Leu168,Cys180]FGF21 (from UniProt Q9NSA1 29-209) (ligand)”: in assay [1], the EC50 (0.1% HSA) (nM), pERK, HEK293/BKL cells was found to be 6 nM and the EC50 (nM), pERK, HEK293/BKL cells is 6 nM. Moreover, in assay [2], the Glucose uptake EC50 (nM), 3T3-L1 adipocytes is 6.7 nM and the Glucose uptake Emax (%), 3T3-L1 adipocytes is 106%.

For the substance “S{Beta-180}-[2-[2-[[2-[2-[2-[[2-[2-[2-[[(4S)-4-carboxy-4-(15-carboxypentadecanoyl-amino)butanoyl]amino]ethoxy]ethoxy]acetyl]amino]ethoxy]ethoxy]acetyl]amino]-ethylamino]-2-oxoethyl]-Ala[Gln121,Leu168,Cys180]FGF21 (from UniProt Q9NSA1 29-209) (ligand)”, in assay [1], the EC50 (0.1% HSA) (nM), pERK, HEK293/BKL cells stood at 6 nM and the EC50 (nM), pERK, HEK293/BKL cells was 4 nM. For the same substance, in assay [2], the Glucose uptake EC50 (nM), 3T3-L1 adipocytes came to 9.1 nM and the Glucose uptake Emax (%), 3T3-L1 adipocytes turned out to be 98%.

In assay [1], “S{Beta-180}-[2-[2-[[2-[2-[2-[[2-[2-[2-[[(4S)-4-carboxy-4-(17-carboxyheptadecanoyl-amino)butanoyl]amino]ethoxy]ethoxy]acetyl]amino]ethoxy]ethoxy]acetyl]amino]-ethylamino]-2-oxoethyl]-Ala[Gln121,Leu168,Cys180,des181]FGF21 (from UniProt Q9NSA1 29-207) (ligand)” registered an EC50 (0.1% HSA) (nM), pERK, HEK293/BKL cells of 20 nM and an EC50 (nM), pERK, HEK293/BKL cells of 8 nM. For the same substance, in assay [2], the Glucose uptake EC50 (nM), 3T3-L1 adipocytes was found to be 8 nM and the Glucose uptake Emax (%), 3T3-L1 adipocytes came to 71%.

“S{Beta-180}-[2-[2-[[2-[2-[2-[[2-[2-[2-[[(4S)-4-carboxy-4-(17-carboxyheptadecanoyl-amino)butanoyl]amino]ethoxy]ethoxy]acetyl]amino]ethoxy]ethoxy]acetyl]amino]-ethylamino]-2-oxoethyl]-Ala[Gln121,Leu168,Cys180]FGF21 (from UniProt Q9NSA1 29-209) (ligand)”: in assay [1], the EC50 (0.1% HSA) (nM), pERK, HEK293/BKL cells was determined as 48 nM and the EC50 (nM), pERK, HEK293/BKL cells came out at 5 nM. In assay [2], this substance had a Glucose uptake EC50 (nM), 3T3-L1 adipocytes of 32 nM and a Glucose uptake Emax (%), 3T3-L1 adipocytes of 109%.

In the case of “S{Beta-180}-[2-[2-[[2-[2-[2-[[2-[2-[2-[[(4S)-4-carboxy-4-(19-carboxynonadecanoyl-amino)butanoyl]amino]ethoxy]ethoxy]acetyl]amino]ethoxy]ethoxy]acetyl]amino]-ethylamino]-2-oxoethyl]-Ala[Gln121,Leu168,Cys180]FGF21 (from UniProt Q9NSA1 29-209) (ligand)”, in assay [1], the EC50 (0.1% HSA) (nM), pERK, HEK293/BKL cells worked out at 133 nM and the EC50 (nM), pERK, HEK293/BKL cells was determined as 5 nM. Also, in assay [2], the Glucose uptake EC50 (nM), 3T3-L1 adipocytes is 24 nM and the Glucose uptake Emax (%), 3T3-L1 adipocytes worked out at 53%.

Take “S{Beta-181}-2-aminoethylsulfanyl-Ala[Gln121,Leu168,Cys181]FGF21 (from UniProt Q9NSA1 29-208) (ligand)”: the EC50 (nM), pERK, HEK293/BKL cells in assay [1] stood at 27 nM. Also, in assay [2], the Glucose uptake EC50 (nM), 3T3-L1 adipocytes is 5 nM and the Glucose uptake Emax (%), 3T3-L1 adipocytes came out at 74%.

Regarding “S{Beta-181}-[2-[2-[[2-[2-[2-[[2-[2-[2-[[(4S)-4-carboxy-4-(11-carboxyundecanoyl-amino)butanoyl]amino]ethoxy]ethoxy]acetyl]amino]ethoxy]ethoxy]acetyl]amino]-ethylamino]-2-oxoethyl]-Ala[Gln121,Leu168,Cys181]FGF21 (from UniProt Q9NSA1 29-208) (ligand)”, in assay [1], the EC50 (0.1% HSA) (nM), pERK, HEK293/BKL cells was 137 nM and the EC50 (nM), pERK, HEK293/BKL cells turned out to be 154 nM.

As for “S{Beta-181}-[2-[2-[[2-[2-[2-[[2-[2-[2-[[(4S)-4-carboxy-4-(13-carboxytridecanoyl-amino)butanoyl]amino]ethoxy]ethoxy]acetyl]amino]ethoxy]ethoxy]acetyl]amino]-ethylamino]-2-oxoethyl]-Ala[Gln121,Leu168,Cys181]FGF21 (from UniProt Q9NSA1 29-208) (ligand)”, in assay [1], the EC50 (0.1% HSA) (nM), pERK, HEK293/BKL cells stood at 41 nM and the EC50 (nM), pERK, HEK293/BKL cells came out at 58 nM. Besides, in assay [2], the Glucose uptake EC50 (nM), 3T3-L1 adipocytes was determined as 7.2 nM and the Glucose uptake Emax (%), 3T3-L1 adipocytes amounted to 55%.

Source of the values: patent US20180140673A1.
